Data published in the supplement of paper PMC11246515.
± gives the standard deviation of the averaged measurements.

Experiment: total protein half-life in vivo (active degradation + dilution); higher = more stable protein
[1] = E. coli NCM3722 delta-clpP delta-lon delta-hslV, growth: N-lim chemostat, doubling time 6 h
[2] = E. coli NCM3722 delta-clpP, growth: N-lim chemostat, doubling time 6 h
[3] = E. coli NCM3722 delta-hslV, growth: N-lim chemostat, doubling time 6 h
[4] = E. coli NCM3722 delta-lon, growth: N-lim chemostat, doubling time 6 h
[5] = E. coli NCM3722 delta-smpB, growth: N-lim chemostat, doubling time 6 h
[6] = wild type E. coli NCM3722, growth: C-lim chemostat, doubling time 3 h
[7] = wild type E. coli NCM3722, growth: C-lim chemostat, doubling time 6 h
[8] = wild type E. coli NCM3722, growth: C-lim chemostat, doubling time 12 h
[9] = wild type E. coli NCM3722, growth: N-lim chemostat, doubling time 6 h
[10] = wild type E. coli NCM3722, growth: N-lim chemostat, doubling time 12 h
[11] = wild type E. coli NCM3722, growth: P-lim chemostat, doubling time 6 h
[12] = wild type E. coli NCM3722, growth: P-lim chemostat, doubling time 12 h

MQVDLLGSAQSAHALHLFHQHSPLVHCMTNDVVQTFTANTLLALGASPAMVIETEEASQFAAIASALLINVGTLTQPRAQAMRAAVEQAKSSQTPWTLDPVAVGALDYRRHFCHELLSFKPAAIRGNASEIMALAGIANGGRGVDTTDAAANAIPAAQTLARETGAIVVVTGEMDYVTDGHRIIGIHGGDPLMTKVVGTGCALSAVVAACCALPGDTLENVASACHWMKQAGERAVARSEGPGSFVPHFLDALWQLTQEVQA
total protein half-life in vivo [1]: 4.08 ± 0.34 h
total protein half-life in vivo [2]: 3.41 ± 0.17 h
total protein half-life in vivo [3]: 3.27 ± 0.13 h
total protein half-life in vivo [4]: 3.94 h
total protein half-life in vivo [5]: 3.42 ± 0.044 h
total protein half-life in vivo [6]: 3.01 ± 0.68 h
total protein half-life in vivo [7]: 4.89 ± 1.2 h
total protein half-life in vivo [8]: 8.48 ± 1 h
total protein half-life in vivo [9]: 3.4 ± 0.41 h
total protein half-life in vivo [10]: 5.17 ± 0.24 h
total protein half-life in vivo [11]: 5.64 ± 0.14 h
total protein half-life in vivo [12]: 10.3 ± 0.67 h

MSVFPESFLWGGALAANQSEGAFREGDKGLTTVDMIPHGEHRMAVKLGLEKRFQLRDDEFYPSHEATDFYHRYKEDIALMAEMGFKVFRTSIAWSRLFPQGDEITPNQQGIAFYRSVFEECKKYGIEPLVTLCHFDVPMHLVTEYGSWRNRKLVEFFSRYARTCFEAFDGLVKYWLTFNEINIMLHSPFSGAGLVFEEGENQDQVKYQAAHHQLVASALATKIAHEVNPQNQVGCMLAGGNFYPYSCKPEDVWAALEKDRENLFFIDVQARGTYPAYSARVFREKGVTINKAPGDDEILKNTVDFVSFSYYASRCASAEMNANNSSAANVVKSLRNPYLQVSDWGWGIDPLGLRITMNMMYDRYQKPLFLVENGLGAKDEFAANGEINDDYRISYLREHIRAMGEAIADGIPLMGYTTWGCIDLVSASTGEMSKRYGFVFVDRDDAGNGTLTRTRKKSFWWYKKVIASNGEDLE
total protein half-life in vivo [1]: 3.7 h
total protein half-life in vivo [2]: > 8 h
total protein half-life in vivo [3]: 1.88 h
total protein half-life in vivo [5]: 1.81 ± 0.14 h
total protein half-life in vivo [7]: 2.47 h
total protein half-life in vivo [8]: 4.65 ± 0.73 h
total protein half-life in vivo [12]: 4.04 ± 0.89 h

MNIDTREITLEPADNARLLSLCGPFDDNIKQLERRLGIEINRRDNHFKLTGRPICVTAAADILRSLYVDTAPMRGQIQDIEPEQIHLAIKEARVLEQSAESVPEYGKAVNIKTKRGVIKPRTPNQAQYIANILDHDITFGVGPAGTGKTYLAVAAAVDALERQEIRRILLTRPAVEAGEKLGFLPGDLSQKVDPYLRPLYDALFEMLGFEKVEKLIERNVIEVAPLAYMRGRTLNDAFIILDESQNTTIEQMKMFLTRIGFNSKAVITGDVTQIDLPRNTKSGLRHAIEVLADVEEISFNFFHSEDVVRHPVVARIVNAYEAWEEAEQKRKAALAAERKREEQEQK [P0A9K3]
total protein half-life in vivo [1]: 5.2 ± 0.69 h
total protein half-life in vivo [2]: 4.25 ± 0.14 h
total protein half-life in vivo [3]: 2.95 ± 0.066 h
total protein half-life in vivo [4]: 4.1 ± 0.2 h
total protein half-life in vivo [5]: 3.167 ± 0.017 h
total protein half-life in vivo [6]: 2.77 ± 0.3 h
total protein half-life in vivo [7]: 4.809 ± 0.025 h
total protein half-life in vivo [8]: 7.67 ± 0.34 h
total protein half-life in vivo [9]: 3.15 ± 0.17 h
total protein half-life in vivo [10]: 4.373 ± 0.043 h
total protein half-life in vivo [11]: 4.37 ± 0.17 h
total protein half-life in vivo [12]: 7.78 ± 0.12 h

MRFVDEYRAPEQVMQLIEHLRERASHLSYTAERPLRIMEVCGGHTHAIFKFGLDQLLPENVEFIHGPGCPVCVLPMGRIDTCVEIASHPEVIFCTFGDAMRVPGKQGSLLQAKARGADVRIVYSPMDALKLAQENPTRKVVFFGLGFETTMPTTAITLQQAKARDVQNFYFFCQHITLIPTLRSLLEQPDNGIDAFLAPGHVSMVIGTDAYNFIASDFHRPLVVAGFEPLDLLQGVVMLVQQKIAAHSKVENQYRRVVPDAGNLLAQQAIADVFCVNGDSEWRGLGVIESSGVHLTPDYQRFDAEAHFRPAPQQVCDDPRARCGEVLTGKCKPHQCPLFGNTCNPQTAFGALMVSSEGACAAWYQYRQQESEA
total protein half-life in vivo [1]: 5.73 h
total protein half-life in vivo [2]: 3.17 ± 0.086 h
total protein half-life in vivo [3]: 2.4 h
total protein half-life in vivo [4]: 2.92 ± 0.14 h
total protein half-life in vivo [6]: 2.32 ± 0.034 h
total protein half-life in vivo [7]: 3.94 ± 0.33 h
total protein half-life in vivo [8]: 5.53 ± 0.43 h
total protein half-life in vivo [9]: 2.2 h
total protein half-life in vivo [10]: 2.79 h
total protein half-life in vivo [11]: 3.08 h
total protein half-life in vivo [12]: 5.78 h

MLARGKTNLKIEEIRMHKHHEIHRVKPLMPALCRIRQGKKVINWETHTLTVDNNQIILFPCGYEFYIENYPEAGLYLAEMLYLPIDLIESFQKLYTVTDQIRNKTSFFLPQNPELIYCWEQLKTSVSRGFSTKIQEHLAMGVLLSLGVNHVNHLLLSYSKQSLISRCYNLLLSEPGTKWTANKVARYLYISVSTLHRRLASEGVSFQSILDDVRLNNALSAIQTTVKPISEIARENGYKCPSRFTERFHNRFNITPREIRKASRE
total protein half-life in vivo [1]: 5.01 ± 0.22 h
total protein half-life in vivo [2]: > 8 h
total protein half-life in vivo [5]: 3.44 ± 0.094 h
total protein half-life in vivo [6]: 2 ± 0.38 h
total protein half-life in vivo [7]: 3.83 ± 0.19 h
total protein half-life in vivo [8]: 6.07 ± 1.8 h
total protein half-life in vivo [9]: 4.12 ± 0.23 h
total protein half-life in vivo [10]: 7.29 ± 0.94 h
total protein half-life in vivo [11]: 3.65 ± 1.5 h
total protein half-life in vivo [12]: 5.86 ± 1.1 h

MHINIAWQDVDTVLLDMDGTLLDLAFDNYFWQKLVPETWGAKNGVTPQEAMEYMRQQYHDVQHTLNWYCLDYWSEQLGLDICAMTTEMGPRAVLREDTIPFLEALKASGKQRILLTNAHPHNLAVKLEHTGLDAHLDLLLSTHTFGYPKEDQRLWHAVAEATGLKAERTLFIDDSEAILDAAAQFGIRYCLGVTNPDSGIAEKQYQRHPSLNDYRRLIPSLM
total protein half-life in vivo [1]: 4.35 ± 0.11 h
total protein half-life in vivo [4]: 2.37 ± 2.1 h
total protein half-life in vivo [6]: 0.973 ± 0.063 h
total protein half-life in vivo [7]: 0.971 h
total protein half-life in vivo [11]: 0.56 h
total protein half-life in vivo [12]: 0.544 h

MNMKTIEDVFIHLLSDTYSAEKQLTRALAKLARATSNEKLSQAFHAHLEETHGQIERIDQVVESESNLKIKRMKCVAMEGLIEEANEVIESTEKNEVRDAALIAAAQKVEHYEIASYGTLATLAEQLGYRKAAKLLKETLEEEKATDIKLTDLAINNVNKKAENKA
total protein half-life in vivo [1]: 5.25 ± 0.25 h
total protein half-life in vivo [3]: 5.18 ± 0.69 h
total protein half-life in vivo [4]: 6.51 ± 0.95 h
total protein half-life in vivo [5]: 4.94 ± 0.081 h
total protein half-life in vivo [6]: 3.02 ± 0.13 h
total protein half-life in vivo [7]: 5.04 ± 0.77 h
total protein half-life in vivo [8]: 10.5 ± 1.4 h
total protein half-life in vivo [9]: 4.881 ± 0.03 h
total protein half-life in vivo [10]: 7.99 ± 0.53 h
total protein half-life in vivo [11]: 5.294 ± 0.042 h
total protein half-life in vivo [12]: 10.3 ± 0.62 h

MANVEIYTKETCPYCHRAKALLSSKGVSFQELPIDGNAAKREEMIKRSGRTTVPQIFIDAQHIGGCDDLYALDARGGLDPLLK [P0AC62]
total protein half-life in vivo [1]: 6.58 h
total protein half-life in vivo [2]: 5.58 ± 0.71 h
total protein half-life in vivo [3]: 4.93 ± 0.091 h
total protein half-life in vivo [4]: 5.33 ± 0.32 h
total protein half-life in vivo [5]: 5.71 ± 1.9 h
total protein half-life in vivo [6]: 2.89 ± 0.5 h
total protein half-life in vivo [7]: 5.23 ± 1 h
total protein half-life in vivo [9]: 4.68 h
total protein half-life in vivo [10]: 9.44 ± 2.5 h
total protein half-life in vivo [11]: 5.35 ± 0.39 h
total protein half-life in vivo [12]: 12.6 ± 1.1 h
